Reference: patent US20220144895A1, “DE NOVO DESIGN OF TUNABLE PH-DRIVEN CONFORMATIONAL SWITCHES” (University of Washington, priority 2019, published 2022)
Entries after “also recorded” stand apart in the source; their conditions may differ.

Experiments:
U2-OS cells = experiment: Colocalization of +36GFP fusions with lysosomal membrane (confocal microscopy); format: cell-based; settings: 5 μM, 1 hr
Description: U-2 OS (ATCC) cells were cultured in DMEM supplemented with 10% (v/v) inactivated FBS (Corning), 2 mM glutamine, penicillin (100 IU/mL), and streptomycin (100 μg/mL) at 37° C. and 5% CO2. The glass-bottom coverslip chambers were pre-coated with 500 μg/mL of Matrigel (Corning). Transfection of LAMP1-HaloTagTM was performed using Lonza Nucleofector system according to the manufacturer's specifications. After overnight of recovery and expression, the cells expressing LAMP1-HaloTagTM were labeled with 100 nM JF646-HTL for 30 minutes and washed three times with pre-warmed DMEM medium. The final concentration of 5 μM+36GFP fusion proteins was incubated with the LAMP1-HaloTagTM expressing U-2 OS cells on a pre-coated coverslip for 1 hr. Cells were fixed with 4% paraformaldehyde for 20 min at room temperature (RT) and quenched/rinsed with PBS supplemented with 30 mM glycine. Then, the coverslips were mounted on FluoroSaveTM (Millipore). For pH measurement of the lysosome, LysoSensorTM Yellow/Blue DND-160 was incubated at 1 mg/mL overnight and washed twice prior to imaging (54). The final concentration of 5 μM protein was incubated with the LAMP1-HaloTag expressing U2-OS cells that were loaded with 1 mg/mL LysoSensorTM Yellow/Blue DND-160 for 1 hr. In separate chambers, LysoSensorTM Yellow/Blue DND-160 loaded cells were incubated with bafilomycin A1 (1 μM) and chloroquine (50 μM) for 1 hr as a control. For fixed cell confocal microscopy, a customized Nikon TiE inverted scope outfitted with a Yokogawa spinning-disk scan head (#CSU-X1) along with an Andor iXonTM EM-CCD camera (DU-897) with […] exposure time was used to collect 3D images using an SR Apo TIRF 100×1.49 oil-immersion objective. […] coefficients were calculated in 3D with JF646 signal (LAMP-HaloTag) and +36GFP signal (corresponding proteins) using Imaris software with thresholding. Zeiss 880 equipped with AiryScanTM was also used to obtain high resolution images using a Plan-Apochromatic 63×/1.4 oil DIC objective.

[1] = Native mass spectrometry of pH-induced changes in oligomeric state; format: physicochemical; settings: native MS
Description: Samples were buffer exchanged twice into 200 mM ammonium acetate (NH4Ac; MilliporeSigma) using Micro Bio-Spin P-6 columns (Bio-Rad). Protein concentrations were determined by UV absorbance using a Nanodrop 2000c spectrophotometer (Thermo Fisher Scientific) and diluted to make up a 10-fold stock solution (50 μM and 16.7 μM monomer and trimer concentration, respectively). 1 μL of this solution was mixed with 9 μL 200 mM NH4Ac/50 mM triethylammonium acetate (TEAA; MilliporeSigma), adjusted with acetic acid (Fisher Scientific) to obtain the desired final pH and incubated on ice for 30 min. […] 5 μL samples were filled into an in-house pulled glass capillary and ionized by nESI at a monomer or a trimer concentration of 5 μM or 1.67 μM respectively. All pH titration data were acquired on an in-house modified SYNAPT® G2 HDMS (Waters Corporation) with a surface-induced dissociation (SID) device incorporated between a truncated trap traveling wave ion guide and the ion mobility cell (39). The following instrument parameters were used spray voltage 0.9-1.3 kV; sampling cone, 20 V; extraction cone, 2 V; source temperature, room temperature; trap gas flow, 4 mL/min; trap bins, 45V. The data were processed with MassLynx™ v4.1 and DriftScope™ v2.1. For relative quantification, charge state series were extracted from DriftScope™, and smoothed spectra (mean; window 20; number of smooths 20) were integrated.
Python scripts were written to generate theoretical models according Equation 1, and curve-fitting to native mass spectrometry data (FIGS. 1, 3, 5) according to Equation 2 by nonlinear least squares using curve fit from scipy.optimize. The free energy estimates for individual n, m, and l layers used in Equation 1 modeling were estimated by solving linear equations as follows: values for the free energy of folding for designs pRO-2 and variants were estimated from GdmCl denaturation experiments (FIG. 11); each of these designs have different numbers of n, m, and l layers, thus series of linear equations relating the number of each layer type to the total free energies of folding were solved to estimate dG values of the individual layers of each type.

[2] = Cryo-electron microscopy and tomography of proteins with DOPC liposomes; settings: gold-nanoparticle conjugates, pH 5 and pH 8
Description: The conjugation reactions were performed immediately prior to use for electron microscopy imaging. […] The grids were prepared using a Vitrobot Mark IV (FEI) at 4 C and 100% humidity before being plunge-frozen in ethane cooled with liquid nitrogen.
Electron micrographs were collected using a Tecnai G2 Spirit™ Transmission Electron Microscope (FEI) operated at 120 kV and equipped with a 4k×4k Gatan Ultrascan CCD camera at a nominal magnification of 26,000× or a Tecnai TF-20 Transmission Electron Microscope (FEI) operated at 200 kV equipped with a K2 Summit Direct Electron Detector (Gatan).
Projection micrographs collected on the TF-20 were captured with the detector operating in counting mode. Specimens were imaged at 14,500 magnification, giving a pixel size of 0.254 nm, with a dose of ˜18e−/Å^2 across 75 200 ms movie frames. Data were collected in a semi-automated fashion using Leginon™ (49) and micrograph movie frames were aligned using MotionCor2™ (50). Leginon™ was used to collect tomography tilt series from −48 to +48 degrees bidirectionally in 3 degree increments with a total accumulated dose of ˜100 e−/Å^2. Reconstructions were processed using etomo in the IMOD™ software suite (31) with CTF parameters estimated from CTFFIND4™ (52). Reconstructed tomograms were visualized and measurements were made using ImageJ™ (53).

[3] = Fluorescence dequenching liposome leakage (liposome disruption) assay; format: biochemical; settings: pH 5, 2.5 μM protein
Summary of the method: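 Extruded ~120–130 nm liposomes (DOPC or 3:1 DOPC:POPS, ± 25% cholesterol) loaded with 25 mM sulforhodamine B in Tris buffer pH 8.0 were acidified to target pH for 20 min at 24 °C. Leakage was read as SRB dequenching (ex/em 565/586) and normalised to pre-acidification and 1% Triton X-100 signals.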

[4] = pH 7.4
Description: For low-pH experiments involving circular dichroism (CD), small-angle X-ray scattering (SAXS), and size exclusion chromatography (SEC), Na2PO4-Citrate buffer was used to ensure that a single buffer system could be used that was stable over the entire pH range to be tested. Buffers were made using established ratios of stock solutions of 0.2 M Na2PO4 and 0.1 M Citrate; final pH was adjusted using hydrochloric acid (HCl) or sodium hydroxide (NaOH) if needed.
CD wavelength scans (260 to 195 nm) and temperature melts (25 to 95° C.) were measured using a JASCO™ J-1500 or an AVIV™ model 420 CD spectrometer. Temperature melts monitored absorption signal at 222 nm and were carried out at a heating rate of 4° C./min; protein samples were at 0.25 mg/mL in either phosphate buffered saline (PBS) pH 7.4 or Na2PO4-Citrate at indicated pH values (see Buffers systems for varying pH). Guanidinium chloride (GdmCl) titrations were all performed on an AVIV 420 spectrometer with an automated titration apparatus using either PBS pH 7.4 or Na2PO4-Citrate buffers at indicated pH at room temperature, monitoring helical signal at 222 nm, using a protein concentration of 0.025 mg/mL in a 1 cm cuvette with stir bar. Each titration consisted of at least 30 evenly distributed concentration points with one minute mixing time for each step. Titrant solution consisted of the same concentration of protein in the same buffer system plus GdmCl; GdmCl concentration of starting solutions was determined by reactive index.

[5] = target: the molecule itself; experiment: native mass spectrometry at 5 uM trimer
Description: Samples were buffer exchanged twice into 200 mM ammonium acetate (NH₄Ac; MilliporeSigma) using Micro Bio-Spin P-6 columns (Bio-Rad). […]

B1: pRO-2-noHis subunit (homotrimer lacking histidine networks) (designed binder)
chain: GSEYEIRKALEELKASTAELKRSTASLRASTEELKKNPSEDALVENNRLIVENNAIIVENNRIIAAVLELIVRAIK
notes: forms a homotrimer; Tag-free form
colocalization with lysosomal membranes (U2-OS cells): not observed in lysosomes | oligomeric state at pH 7 / neutral pH [1]: assembled to the intended trimeric state | pH response of oligomeric state (pH-induced disassembly) ([1]; pH ~7 to ~3): remained trimeric at low pH; also recorded: no significant pH response | interaction with liposomes by cryo-EM [2]: no interactions with liposomes at either pH; also recorded: does not interact with liposomes at either pH | liposome disruption activity at pH 5 [3]: no detectable liposome activity | folding stability by GdmCl denaturation [4]: unaffected by change in pH | binding result [5]: binds
